The source of these data is article PMC6451138 (Nucleic Acids Research, 2019).

For data set [1], the target named is AtmtSSB2 (Arabidopsis thaliana). Nature of the data set: SEC.
For data set [2], the target named is AtmtSSB1 (Arabidopsis thaliana). Nature of the data set: SEC.
The target in data set [3] is exonuclease deficient AtPolIB (AtPolIB exo-) (Arabidopsis thaliana). Briefly: MST.
For data set [4] the target is unchanged. Briefly: SEC-MALS. (In gel filtration, larger molecules generally elute earlier.)
In data set [5] the target is T1, AtmtSSB1 (Arabidopsis thaliana, UniProt Q84J78 33-201).
T1 sequence: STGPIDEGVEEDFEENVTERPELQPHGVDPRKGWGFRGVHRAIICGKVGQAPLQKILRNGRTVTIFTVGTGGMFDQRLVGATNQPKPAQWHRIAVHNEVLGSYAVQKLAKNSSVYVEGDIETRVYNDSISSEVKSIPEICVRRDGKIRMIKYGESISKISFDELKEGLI
Nature of the data set: fluorescence anisotropy. In general terms: Polarisation of emitted light reports the rotation of a fluorescent probe.

Data set [6] deals with the molecule itself. Briefly: SEC.
For data set [7], the target named is T1, AtmtSSB1. Nature of the data set: fluorescence anisotropy. This is another data set of the same source.

Some results are limits rather than exact numbers.

Usually stoichiometry N stands for a count of units in the complex or per binding partner. For the molecule AtmtSSB2 (natural protein), the stoichiometry N in data set [1] was 4.

The Kd is the constant that tells how readily two partners part at equilibrium. Read a high Kd as weaker binding. The molecule AtmtSSB1 (natural protein) yielded a stoichiometry N in data set [2] of 4. Moreover, the Kd in data set [3] was 1480 nM.

On to “exonuclease deficient AtPolIB (AtPolIB exo-) (enzyme)”, for which the stoichiometry N in data set [4] came to 2.

B1: pssDNA-10 (Cy3) (mixed)
DNA 1: AACACTGTGAGCTTAGAGCCCCGGGG
DNA 2: CTAAGCTCACAGTGTT
In the case of B1, the binding result in data set [5] is “no binding”.

B2: AtOSB3 (natural protein, Arabidopsis thaliana, UniProt Q8GWJ4 62-440, looked up)
chain: VATEKESTPPKKIEYKPEISNWINLIGFVEQPVQFGPCSDGKFWAGTVISQRSGSKSSNFWIPIIFEGDLAKIAVQHVKKEDRIHVSGKLFIDSPPPNVTYSQSNVQVMVQNLNFVQAATSTTKTISPPEKEVTSIKKKPARSKKVKVIDEETSNSWKHLIENPKEWLDHRGNKANGLVKPGHPDFKMKVGGLSLWLSTAPDWALLKLEELKFDVLVPKGNIKLNQLKGEESWKDLVQNPDKWLDNRSDKTNVKYPDFKHKETGEALWMTNSPIWVLSKLPPLKKNQERPFMSNKVSQLELDVEVPKGNLKQLKREEIWKNLVENPSKWWDNRLDKRNPKGPDFKHKETGEALWIGDSPTWALSKLPPLKKNQERPVMA
Regarding B2, the “stoichiometry N” value in data set [6] was 4.

B3: AtOSB2 (natural protein, Arabidopsis thaliana, UniProt Q8GXH3 21-371, looked up)
chain: ASEITTGKRITSPQIRLYTAAAVGGKTGNGERKQRAKAPAKTPEAVTPVKPLEIASVTATTENELPRPNEIAYESEVANWVNLIGFVDQPVQFEASSDGKFWAGTVISQRSASDSSGFWIPIIFEGDLAKTAARYVSKDDQIHVSGKLFIDSPPPNMTYAQANVQVLVQNLNFIQPMSPSPSPFMVMSSSEKEESGIKKQPARAKQDIVIDEASDSWNHLIENPKEWWDHRENKVNGLVKPRHPDFKSKDSSFSLWLNKAPNWVLPKLEGLEFDVLVPKARVVKQLKGEESWKDLVQNPDKWWDNRIDKRNAKAPDFKHKETGEALWLNESPTWVLPKLPPVKKKQESIVF
Consider B3, for which, in data set [6], the “stoichiometry N” value was determined as 4.

Consider TTTTTTTTTTTTTTTTTTTTTTTTTTTTTTTTTTTTTTTTTTTTT (ssDNA) [ssDNA(45), Poly-T 45], for which, in data set [7], binding was put at a Kd of 62.8 ± 3.6 nM.

B4: AtWhirly2 (natural protein, Arabidopsis thaliana, UniProt Q8VYF7 30-238, looked up)
chain: ASWSNSSTPGRGFPGKDAAKPSGRLFAPYSIFKGKAALSVEPVLPSFTEIDSGNLRIDRRGSLMMTFMPAIGERKYDWEKKQKFALSPTEVGSLISMGSKDSSEFFHDPSMKSSNAGQVRKSLSVKPHADGSGYFISLSVNNSILKTNDYFVVPVTKAEFAVMKTAFSFALPHIMGWNRLTGHVNTEALPSRNVSHLKTEPQLELEWDK
On to B4, for which the “stoichiometry N” value in data set [6] came out at 4. The Kd in data set [3] was above 250000 nM.
